# Assay results from patent publication US20050171004A1, “Use of cardiotrophin-1 to promote wound healing and counteract overt fibrosis” (priority 2003, published 2005).
# Columns and labels:
# Assay type in all cases: cell-based, rat
# cardiac fibroblasts [1] = assay: Western analysis of cell cycle regulatory proteins (cyclins, Rb)
# Description: (§1) Protein concentrations of tissue and cell lysates were determined by the BCA method (Smith et al., 1985, Anal Biochem 150: 76-85). Proteins were separated by 8-12% SDS-PAGE and transferred to PVDF membrane (Roche, Indianapolis, Ind.) for 1 hour at 300 mA for small proteins or for 2 hours at 500 mA for proteins greater than 100 kDa. Membranes were blocked with 5% non-fat skim milk in tris-buffered saline containing 0.2% Tween 20 (TBST). Proteins were visualized with ECL Plus (Amersham) after probing with primary and secondary antibodies. Band intensity was quantified using a CCD camera imaging densitometer (GS670, Bio-Rad Laboratories (Canada) Ltd. Mississauga, Ontario).
# Cardiac fibroblasts were isolated from the ventricles of rats and incubated with CT-1 for specified times and at specified concentrations. […] Addition of CT-1 results in S-phase re-entry within 6 hours of stimulation (FIG. 7). […] (FIG. 8). […] To determine the effect of CT-1 on cell cycle regulatory proteins, we incubated cardiac fibroblasts with CT-1 and lysed them at specified times. […] To determine if increased DNA synthesis was accompanied by an increase in cell number, we repeated the experiments in the absence of ^3H-thymidine, detached the cells from the plates and counted the total number of cells.
# cardiac fibroblasts [2] = assay: Western analysis of phosphorylation of translational regulatory proteins; conditions: stimulation with CT-1
# Description: as §1
# To determine the effect of CT-1 on protein synthesis in cardiac fibroblasts we measured incorporation of ^3H-labeled leucine. […] Since the activity of translational regulatory proteins is modified by phosphorylation, we used phospho-specific antibodies to determine if CT-1 directly influenced the activity of these regulatory proteins.
# We then determined the effect of pharmacologic inhibitors on the activation of this signaling cascade.
# cardiac fibroblasts [3] = assay: Western analysis of signaling pathways activated by CT-1 in cardiac fibroblasts; conditions: cardiac fibroblasts incubated with CT-1
# Description: Fibroblasts were isolated from the hearts of 200-250 g adult male Sprague-Dawley rats as previously described (Hao et al., 2000, Am J Physiol Heart Circ Physiol 279: H3020-H3030). Briefly, hearts were subjected to Langendorff perfusion at 37° C. with Joklik's medium containing 0.1% collagenase (Worthington Biochemical Corporation, Lakewood, N.J.) for 20-25 minutes. Collagenase was neutralized by addition of an equal volume of DMEM/F12 medium containing 10% FBS and liberated cells were collected by centrifugation at 500×g for 5 minutes. Cells were resuspended in fresh DMEM/F12 containing 10% FBS and plated on 75 cm^2 culture flasks at 37° C. with 5% CO2 for 3 hours. Non adherent cells (myocytes) were removed by changing the culture media and adherent cells (mainly fibroblasts) were incubated in DMEM/F12 containing 10% FBS, 100 U/mL penicillin, 100 μg/mL streptomycin, and 100 μM ascorbate. Fibroblasts were used for experiments after the second passage and the purity of these cells was ≧95%, using routine phenotyping methods as previously described (Peterson et al., 1999, Cardiovasc Res 41: 575-585). […] Cells were rendered quiescent by incubation in serum-free medium for 24 hours then stimulated with CT-1 for specified times and lysed in RIPA buffer (150 mM NaCl, 1% Triton X-100, 0.5% deoxycholate, 0.1% SDS, 50 mM Tris) with 1× protease inhibitor cocktail (Sigma-Aldrich, Oakville, Ontario) and 10 mM NaF, 1 mM Na3VO4 and 1 mM EGTA.
# as §1, with “Proteins were visualized with ECL Plus (Amersham) after probing with primary and secondary antibodies.” left out, “Ontario). […]” for “Ontario).”
# cardiac fibroblasts [4] = assay: Cell counting (Coulter counter); conditions: CT-1 for 24 hours
# Description: To determine absolute cell numbers after stimulation with CT-1, the total number of cells were counted. Equal numbers of cells were loaded into each well of 24 well plates and incubated with CT-1 for 24 hours. The cells were detached with trypsin, diluted in filtered phosphate buffered saline, and counted with Model ZM Coulter cell counter (Beckman Coulter, Fullerton, Calif.).
# cardiac fibroblasts [5] = assay: Collagen synthesis (P1CP radioimmunoassay of conditioned media); conditions: CT-1 for 24 hours
# Description: Synthesis of mature type I collagen was determined by measuring the concentration of the carboxyterminal propeptide of type I collagen (P1CP) in conditioned media from CT-1 treated or untreated cardiac fibroblasts. 5×10^4 cells were loaded into each well of a 6 well plate, allowed to attach overnight, and serum starved for 24 hours. Cells were treated with CT-1 at specified concentrations for an additional 24 or 48 hours. P1CP content in 0.1 mL conditioned media was determined by radioimmunoassay according to the manufacturer's specification (Diasorin Inc, Stillwater, Minn.). Radioactivity was quantified with a gamma counter (Gamma 5500, Beckman Coulter, Fullerton, Calif.) and the concentration of P1CP was determined by the % B/B0 versus log concentration.
# cardiac fibroblasts [6] = assay: Protein synthesis assay (3H-leucine incorporation); conditions: CT-1 for 24 hours
# Description: Protein synthesis was determined using the methods of Wolf and Neilson (Wolf and Neilson, 1990, Am J Physiol 259: 768-777). 2.5×10^4 cells (counted with a hemacytometer) were loaded into each well of 24-well plates, allowed to attach overnight, then rendered quiescent in serum free DMEM/F12 for 24 hours. Cells were stimulated with CT-1 for an additional 24 hours in the presence of 2 μCi/mL ^3H-leucine with or without inhibitors of signaling pathways. The culture media was aspirated, cells rinsed twice with phosphate buffered saline and proteins precipitated by two incubations with 10% TCA at room temperature. The precipitated protein was solubilized in 300 μl lysis buffer containing 0.5 M NaOH and 1% Triton X-100 at room temperature for 15 minutes. The lysate was transferred to scintillation vials, and beta emission was determined with 3 ml Ecolume scintillation fluid (ICN Pharmaceuticals) and a scintillation counter (LS6500, Beckman Coulter, Fullerton, Calif.).
molecule,measurement,setting,value
"cardiotrophin-1 (protein, UniProt Q16619 1-201, looked up, gp130 signaling cytokine of the LIF or IL-6 superfamily; 201 amino acids as a mature protein, 21.5 kDa) Cardiotrophin-1: MSRREGSLEDPQTDSSVSLLPHLEAKIRQTHSLAHLLTKYAEQLLQEYVQLQGDPFGLPSFSPPRLPVAGLSAPAPSHAGLPVHERLRLDAAALAALPPLLDAVCRRQAELNPRAPRLLRRLEDAARQARALGAAVEALLAALGAANRGPRAEPPAATASAASATGVFPAKVLGLRVCGLYREWLSRTEGDLGQLLPGGSA",phosphorylation of the retinoblastoma protein,"cardiac fibroblasts [1]; Rb pS795, pS807/811",hyperphosphorylation
same,expression of cyclins,"cardiac fibroblasts [1]; cyclins A, E, CT-1 for specified times",increase in expression of cyclins
same,"phosphorylation of Akt T308/S473, p70 S6 kinase T389 and S421/T424, Mnk1, eIF4E, 4E-BP1 and S6 ribosomal protein",cardiac fibroblasts [2],induced an increase in phosphorylation
same,"phosphorylation of gp130, Jak1, Jak2, STAT3, STAT1",cardiac fibroblasts [3],resulted in phosphorylation
same,"phosphorylation of p42/44 MAPK, p38 MAPK, JNK and Src",cardiac fibroblasts [3],observed phosphorylation
same,Phosphorylation of STAT5 or STAT6,cardiac fibroblasts [3]; data not shown,not observed
same,total cell number,cardiac fibroblasts [4],increase in total cell number
same,P1CP expression normalized to the number of cells at the end of the experiment,cardiac fibroblasts [5]; corrected for cell number,apparent decrease in overall mature collagen synthesis
same,expression of P1CP in the culture media (mature collagen synthesis),cardiac fibroblasts [5]; not normalized,increased expression of P1CP
same,protein synthesis (3H-leucine incorporation),cardiac fibroblasts [6],dose-dependent increase in protein synthesis
